B1: anti-PSMA CAR with Ab1 scFv (other)
chain: DIQLTQSPSSLSASVGDRVTITCRASSSVSHIYWYQQKPGKAPKPWIYRTSNLASGVPSRFSGSGSGTDYTLTISSLQPEDFATYYCQQYHTYPPTFGQGTKLEIKGSTSGSGKPGSGEGSTKGEVQLVESGGGLVQPGGSMRLSCAASGFTFSDYYMAWVRQAPGKGLEWIANINYDGSNTYYADSLKGRFTISRDNSKNTLYLQMNSLRAEDTAVYYCARNWDGYYGYFDVWGQGTTVTVSS
notes: Chimeric antigen receptor on the surface of transduced human T cells; Construct 101 is the constitutive EF1a vector and 201 the GAL4-inducible payload vector; also called Abl; construct 101; not shown: CD8a hinge, CD8a transmembrane, 4-1BB and CD3zeta domains
B2: anti-PSMA CAR with Ab3 scFv (other)
chain: EVQLVESGGGLVQPGGSMRLSCAASGFTFSDYYMAWVRQAPGKGLEWVANINYDGTSTYYADSLKGRFTISRDSSKNTLYLQMNSLRAEDTAVYYCARALDGYYGYLDVWGQGTTVTVSSGSTSGSGKPGSGEGSTKGDIQLTQSPSSLSASVGDRVTLTCRASQSISNNLHWYQQKPGKAPKLLIKYVSQSISGIPSRFSGSGLGTDFTLTISSVQPEDFATYYCQQSNSWPYTFGQGTKLEIK
notes: Chimeric antigen receptor on the surface of transduced human T cells; Constructs 103 (constitutive) and 203 (inducible payload) are treated as the same CAR protein; also called construct 103; construct 203; not shown: CD8a hinge, CD8a transmembrane, 4-1BB and CD3zeta domains
B3: anti-PSMA CAR with Ab2 scFv (other)
chain: DIQMTQSPSSLSASVGDRVTVTCRASQNVNTNVAWYQQKPGKAPKVLIYSASYRNSGVPSRFSGSGSGTDFTLTISSVQPEDFATYYCQQYNSYPFTFGQGTKLEIKGSTSGSGKPGSGEGSTKGQVQLVQSGAEVKKPGASVKLSCKASGYTFTTYWMHWVRQAPGQGLEWIGMIHPNSGSTNYAQKFQGRATLTVDTSTSTAYMELSSLRSEDTAVYYCARDPYDYGEDFDVWGQGTTVTVSS
notes: Chimeric antigen receptor on the surface of transduced human T cells, expressed from the GAL4-inducible payload vector; also called construct 202; Ab6 SynNotch/202; not shown: CD8a hinge, CD8a transmembrane, 4-1BB and CD3zeta domains

How the values were obtained:
[1] = target: T1, recombinant PSMA (rPSMA) containing a 6x His tag (human, UniProt Q04609 44-750); test: flow cytometry, rPSMA-6xHis + anti-His; synNotch/CAR-payload T cells without myc beads (CAR not induced); donor #3
T1 construct: Soluble staining reagent, detected with an anti-His antibody; also called prostate-specific membrane antigen
Experimental: (§1) Seven days after transduction, T cells transduced as described in example 1 were harvested to determine transduction efficiencies. 1.5×10⁵ T cells were plated in 96 well plates in duplicate. For canonical CAR T cells, T cells were cultured overnight in hTCM (human T cell media), that included of x-vivo 15 (Lonza (Basel, Switzerland)), 5% human serum (Valley Biomedical (Winchester, Va.)), and 1% Glutamax (Gibco). For synNotch T receptor expressing cells, the T cells were cultured in the presence and absence of myc beads overnight to stimulate the synNotch receptor and therebyinduce CAR expression. After overnight culture, CAR expression was measured using recombinant PSMA (rPSMA) containing a 6× His tag (SEQ ID NO: 260). The cells were stained with an anti-His antibody and the stained cells were detected via flow cytometry. Only cells bound by the rPSMA (and anti-His) are detected to measure expression.

[2] = target: T1, recombinant PSMA (rPSMA) containing a …; test: flow cytometry of canonical CAR T cells stained with rPSMA-6xHis and anti-His; donor #1
Experimental: as §1

[3] = target: T1, recombinant PSMA (rPSMA) containing a …; test: flow cytometry, rPSMA-6xHis + anti-His; synNotch/CAR-payload T cells without myc beads (CAR not induced); donor #1

T1 sequence (Q04609 other isoform, or with tags, fused parts or gaps limits assumed): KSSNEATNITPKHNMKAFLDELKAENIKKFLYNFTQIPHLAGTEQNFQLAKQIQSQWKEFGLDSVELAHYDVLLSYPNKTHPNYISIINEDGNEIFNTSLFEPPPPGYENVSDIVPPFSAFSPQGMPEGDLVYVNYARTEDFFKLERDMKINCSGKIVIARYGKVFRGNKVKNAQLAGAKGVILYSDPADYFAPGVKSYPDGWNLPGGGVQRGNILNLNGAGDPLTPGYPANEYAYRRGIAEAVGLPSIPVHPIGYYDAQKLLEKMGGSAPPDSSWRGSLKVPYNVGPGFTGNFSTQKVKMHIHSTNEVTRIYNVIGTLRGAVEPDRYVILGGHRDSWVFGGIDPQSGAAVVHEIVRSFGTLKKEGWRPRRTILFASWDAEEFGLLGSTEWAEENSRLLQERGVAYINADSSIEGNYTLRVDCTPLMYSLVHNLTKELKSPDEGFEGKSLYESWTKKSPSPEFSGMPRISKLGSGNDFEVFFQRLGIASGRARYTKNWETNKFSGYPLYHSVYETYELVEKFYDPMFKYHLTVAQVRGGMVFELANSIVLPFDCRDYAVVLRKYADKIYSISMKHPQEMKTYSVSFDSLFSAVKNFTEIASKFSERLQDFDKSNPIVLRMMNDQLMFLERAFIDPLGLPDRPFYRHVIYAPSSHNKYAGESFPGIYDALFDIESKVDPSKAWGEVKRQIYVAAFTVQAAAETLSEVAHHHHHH

Binder | % CAR+ (Unstimulated) [1] [%] | % CAR+ [2] [%] | % CAR+ (Unstimulated) [3] [%]
B1 | 6.2 | 95.4 | 3.7
B2 | 4.6 | – | 3.2
B3 | 1.4 | – | –

Reference: US20220204930A1 (KITE PHARMA, published 2022)
